Data: paper PMC12102759 (2025)

B1: SH3BP2 peptide 410-425 (SH3 domain-binding protein 2), 16-mer library wild type / TNKS ANK (TNKS 12 ANK repeats, residues 174-649) (parent complex)
chain 1: LPHLQRSPPDGQSFRS
chain 2: TGVPAVSGALRELLEACRNGDVSRVKRLVDAANVNAKDMAGRKSSPLHFAAGFGRKDVVEHLLQMGANVHARDDGGLIPLHNACSFGHAEVVSLLLCQGADPNARDNWNYTPLHEAAIKGKIDVCIVLLQHGADPNIRNTDGKSALDLADPSAKAVLTGEYKKDELLEAARSGNEEKLMALLTPLNVNCHASDGRKSTPLHLAAGYNRVRIVQLLLQHGADVHAKDKGGLVPLHNACSYGHYEVTELLLKHGACVNAMDLWQFTPLHEAASKNRVEVCSLLLSHGADPTLVNCHGKSAVDMAPTPELRERLTYEFKGHSLLQAAREADLAKVKKTLALEIINFKQPQSHETALHCAVASLHPKRKQVTELLLRKGANVNEKNKDFMTPLHVAAERAHNDVMEVLHKHGAKMNALDTLGQTALHRAALAGHLQTCRLLLSYGSDPSIISLQGFTAAQMGNEAVQQILSESTPIRTSD

Variants of: B1
Test: proteomic peptide phage display deep mutational scan (ProP-PD DMS): M13 P8 16-mer library selected against immobilised GST-tagged bait for four days (rounds), NGS of the eluted pools per day and pseudo-replica; bait immobilised on MaxiSorp plates (10 µg), library pre-cleared on GST, 2 h binding at 4 °C, five washes; one round per day, days 1-4; value from days 2 and 3

In order of rising screen value:
1. chain 1 L4G  0.000123 average fractional NGS count over selection days 2 and 3 (reads of this peptide / all reads for the bait, averaged over …
2. chain 1 F14N  0.000125 average fractional NGS count over selection days 2 and 3 (reads of this peptide / all reads for the bait, averaged over …
3. chain 1 F14Q  0.000155 average fractional NGS count over selection days 2 and 3 (reads of this peptide / all reads for the bait, averaged over …
4. chain 1 F14E  0.00017 average fractional NGS count over selection days 2 and 3 (reads of this peptide / all reads for the bait, averaged over …
5. chain 1 P9S  0.000178 average fractional NGS count over selection days 2 and 3 (reads of this peptide / all reads for the bait, averaged over …
6. chain 1 G11N  0.000201 average fractional NGS count over selection days 2 and 3 (reads of this peptide / all reads for the bait, averaged over …
7. chain 1 P2M  0.000224 average fractional NGS count over selection days 2 and 3 (reads of this peptide / all reads for the bait, averaged over …
8. chain 1 D10A  0.000226 average fractional NGS count over selection days 2 and 3 (reads of this peptide / all reads for the bait, averaged over …
9. chain 1 Q5A  0.000231 average fractional NGS count over selection days 2 and 3 (reads of this peptide / all reads for the bait, averaged over …
10. chain 1 P2L  0.000238 average fractional NGS count over selection days 2 and 3 (reads of this peptide / all reads for the bait, averaged over …
11. chain 1 Q5L  0.000257 average fractional NGS count over selection days 2 and 3 (reads of this peptide / all reads for the bait, averaged over …
12. chain 1 L4Q  0.000264 average fractional NGS count over selection days 2 and 3 (reads of this peptide / all reads for the bait, averaged over …
13. chain 1 S13A  0.000295 average fractional NGS count over selection days 2 and 3 (reads of this peptide / all reads for the bait, averaged over …
14. chain 1 R15W  0.000302 average fractional NGS count over selection days 2 and 3 (reads of this peptide / all reads for the bait, averaged over …
15. chain 1 P2T  0.00034 average fractional NGS count over selection days 2 and 3 (reads of this peptide / all reads for the bait, averaged over …
16. chain 1 L4Y  0.000355 average fractional NGS count over selection days 2 and 3 (reads of this peptide / all reads for the bait, averaged over …
17. chain 1 S13F  0.000366 average fractional NGS count over selection days 2 and 3 (reads of this peptide / all reads for the bait, averaged over …
18. chain 1 F14L  0.000394 average fractional NGS count over selection days 2 and 3 (reads of this peptide / all reads for the bait, averaged over …
19. chain 1 P2H  0.000416 average fractional NGS count over selection days 2 and 3 (reads of this peptide / all reads for the bait, averaged over …
20. chain 1 R15Q  0.000422 average fractional NGS count over selection days 2 and 3 (reads of this peptide / all reads for the bait, averaged over …
21. chain 1 Q5W  0.000468 average fractional NGS count over selection days 2 and 3 (reads of this peptide / all reads for the bait, averaged over …
22. chain 1 D10V  0.00049 average fractional NGS count over selection days 2 and 3 (reads of this peptide / all reads for the bait, averaged over …
23. chain 1 L4N  0.000501 average fractional NGS count over selection days 2 and 3 (reads of this peptide / all reads for the bait, averaged over …
24. chain 1 S13N  0.000503 average fractional NGS count over selection days 2 and 3 (reads of this peptide / all reads for the bait, averaged over …
25. chain 1 L1K  0.000567 average fractional NGS count over selection days 2 and 3 (reads of this peptide / all reads for the bait, averaged over …
26. chain 1 D10P  0.00059 average fractional NGS count over selection days 2 and 3 (reads of this peptide / all reads for the bait, averaged over …
27. chain 1 R15F  0.000621 average fractional NGS count over selection days 2 and 3 (reads of this peptide / all reads for the bait, averaged over …
28. chain 1 F14H  0.000634 average fractional NGS count over selection days 2 and 3 (reads of this peptide / all reads for the bait, averaged over …
29. chain 1 L4S  0.000672 average fractional NGS count over selection days 2 and 3 (reads of this peptide / all reads for the bait, averaged over …
30. chain 1 Q5N  0.000679 average fractional NGS count over selection days 2 and 3 (reads of this peptide / all reads for the bait, averaged over …
31. chain 1 P8H  0.000697 average fractional NGS count over selection days 2 and 3 (reads of this peptide / all reads for the bait, averaged over …
32. chain 1 F14D  0.000786 average fractional NGS count over selection days 2 and 3 (reads of this peptide / all reads for the bait, averaged over …
33. chain 1 L4T  0.000821 average fractional NGS count over selection days 2 and 3 (reads of this peptide / all reads for the bait, averaged over …
34. chain 1 S7H  0.000827 average fractional NGS count over selection days 2 and 3 (reads of this peptide / all reads for the bait, averaged over …
35. chain 1 F14G  0.000932 average fractional NGS count over selection days 2 and 3 (reads of this peptide / all reads for the bait, averaged over …
36. chain 1 L4H  0.000978 average fractional NGS count over selection days 2 and 3 (reads of this peptide / all reads for the bait, averaged over …
37. chain 1 L4P  0.00111 average fractional NGS count over selection days 2 and 3 (reads of this peptide / all reads for the bait, averaged over …
38. chain 1 Q5G  0.00123 average fractional NGS count over selection days 2 and 3 (reads of this peptide / all reads for the bait, averaged over …
39. chain 1 Q5Y  0.00141 average fractional NGS count over selection days 2 and 3 (reads of this peptide / all reads for the bait, averaged over …
40. chain 1 L1A  0.00143 average fractional NGS count over selection days 2 and 3 (reads of this peptide / all reads for the bait, averaged over …
41. chain 1 S13P  0.00144 average fractional NGS count over selection days 2 and 3 (reads of this peptide / all reads for the bait, averaged over …
42. chain 1 L1S  0.00146 average fractional NGS count over selection days 2 and 3 (reads of this peptide / all reads for the bait, averaged over …
43. chain 1 L4M  0.0015 average fractional NGS count over selection days 2 and 3 (reads of this peptide / all reads for the bait, averaged over …
44. chain 1 P9A  0.00156 average fractional NGS count over selection days 2 and 3 (reads of this peptide / all reads for the bait, averaged over …
45. chain 1 Q5M  0.00158 average fractional NGS count over selection days 2 and 3 (reads of this peptide / all reads for the bait, averaged over …
46. chain 1 S13H  0.00169 average fractional NGS count over selection days 2 and 3 (reads of this peptide / all reads for the bait, averaged over …
47. chain 1 L4I  0.00171 average fractional NGS count over selection days 2 and 3 (reads of this peptide / all reads for the bait, averaged over …
48. chain 1 R15H  0.00172 average fractional NGS count over selection days 2 and 3 (reads of this peptide / all reads for the bait, averaged over …
49. chain 1 S13E  0.00174 average fractional NGS count over selection days 2 and 3 (reads of this peptide / all reads for the bait, averaged over …
50. chain 1 F14M  0.0018 average fractional NGS count over selection days 2 and 3 (reads of this peptide / all reads for the bait, averaged over …
51. chain 1 S7M  0.00193 average fractional NGS count over selection days 2 and 3 (reads of this peptide / all reads for the bait, averaged over …
52. chain 1 P8N  0.0021 average fractional NGS count over selection days 2 and 3 (reads of this peptide / all reads for the bait, averaged over …
53. chain 1 R15P  0.00212 average fractional NGS count over selection days 2 and 3 (reads of this peptide / all reads for the bait, averaged over …
54. chain 1 S7Y  0.00213 average fractional NGS count over selection days 2 and 3 (reads of this peptide / all reads for the bait, averaged over …
55. chain 1 F14T  0.0022 average fractional NGS count over selection days 2 and 3 (reads of this peptide / all reads for the bait, averaged over …
56. chain 1 S7Q  0.00222 average fractional NGS count over selection days 2 and 3 (reads of this peptide / all reads for the bait, averaged over …
57. chain 1 L4F  0.00253 average fractional NGS count over selection days 2 and 3 (reads of this peptide / all reads for the bait, averaged over …
58. chain 1 Q5F  0.00256 average fractional NGS count over selection days 2 and 3 (reads of this peptide / all reads for the bait, averaged over …
59. chain 1 F14S  0.00286 average fractional NGS count over selection days 2 and 3 (reads of this peptide / all reads for the bait, averaged over …
60. chain 1 Q5H  0.0031 average fractional NGS count over selection days 2 and 3 (reads of this peptide / all reads for the bait, averaged over …
61. chain 1 P8V  0.00324 average fractional NGS count over selection days 2 and 3 (reads of this peptide / all reads for the bait, averaged over …
62. chain 1 R15S  0.00343 average fractional NGS count over selection days 2 and 3 (reads of this peptide / all reads for the bait, averaged over …
63. chain 1 P2D  0.00379 average fractional NGS count over selection days 2 and 3 (reads of this peptide / all reads for the bait, averaged over …
64. chain 1 L4W  0.00434 average fractional NGS count over selection days 2 and 3 (reads of this peptide / all reads for the bait, averaged over …
65. chain 1 S7F  0.00476 average fractional NGS count over selection days 2 and 3 (reads of this peptide / all reads for the bait, averaged over …
66. chain 1 S13V  0.00486 average fractional NGS count over selection days 2 and 3 (reads of this peptide / all reads for the bait, averaged over …
67. chain 1 P8T  0.00538 average fractional NGS count over selection days 2 and 3 (reads of this peptide / all reads for the bait, averaged over …
68. chain 1 R15G  0.00618 average fractional NGS count over selection days 2 and 3 (reads of this peptide / all reads for the bait, averaged over …
69. chain 1 S7N  0.00621 average fractional NGS count over selection days 2 and 3 (reads of this peptide / all reads for the bait, averaged over …
70. chain 1 S7V  0.00627 average fractional NGS count over selection days 2 and 3 (reads of this peptide / all reads for the bait, averaged over …
71. chain 1 S13I  0.0065 average fractional NGS count over selection days 2 and 3 (reads of this peptide / all reads for the bait, averaged over …
72. chain 1 R15T  0.00759 average fractional NGS count over selection days 2 and 3 (reads of this peptide / all reads for the bait, averaged over …
73. chain 1 F14I  0.00763 average fractional NGS count over selection days 2 and 3 (reads of this peptide / all reads for the bait, averaged over …
74. chain 1 P8D  0.00888 average fractional NGS count over selection days 2 and 3 (reads of this peptide / all reads for the bait, averaged over …
75. chain 1 F14A  0.0212 average fractional NGS count over selection days 2 and 3 (reads of this peptide / all reads for the bait, averaged over …
